± gives the standard deviation.

The data set can be described thus: collision cross section of modified peptide (TIMS, N2, iRT-aligned); higher = larger / more extended gas-phase ion. The method, then:
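1/K0 was aligned run-wise to spiked iRT peptides and converted to CCS in N2 (Mason-Schamp). Values are the mean of 1-3 technical replicates for the most abundant feature at each charge state.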

Setting [1] is: charge state: 2, modification: Butyryl.
Setting [2] is: charge state: 3, modification: Butyryl.
The mark [3] stands for this setting: charge state: 2, modification: Glutarylation.
Where [4] appears, read: charge state: 3, modification: Glutarylation.
The mark [5] stands for this setting: charge state: 2, modification: hydroxyisobutyryl.
The mark [6] stands for this setting: charge state: 3, modification: Trimethyl (K).
Where [7] appears, read: charge state: 2, modification: Phospho (Y).
The mark [8] stands for this setting: charge state: 2, modification: Formyl.
The mark [9] stands for this setting: charge state: 2, modification: GlyGly (K).
Where [10] appears, read: charge state: 3, modification: GlyGly (K).
The mark [11] stands for this setting: charge state: 2, modification: Methyl (K).
[12] abbreviates: charge state: 3, modification: Methyl (K).
Where [13] appears, read: charge state: 2, modification: Dimethyl (K).
[14] abbreviates: charge state: 3, modification: Dimethyl (K).
Where [15] appears, read: charge state: 2, modification: Propionyl.
Where [16] appears, read: charge state: 3, modification: Propionyl.
Where [17] appears, read: charge state: 2, modification: Nitro (Y).
The mark [18] stands for this setting: charge state: 2, modification: Biotin.
Setting [19] is: charge state: 3, modification: Biotin.
Where [20] appears, read: charge state: 3, modification: HexNAc (ST).
The mark [21] stands for this setting: charge state: 2, modification: Trimethyl (K).
Where [22] appears, read: charge state: 2, modification: Citrullination (R).
Setting [23] is: charge state: 3, modification: Citrullination (R).
[24] abbreviates: charge state: 2, modification: Crotonyl.
[25] abbreviates: charge state: 3, modification: Crotonyl.
[26] abbreviates: charge state: 2, modification: Acetyl (K).
Where [27] appears, read: charge state: 3, modification: Acetyl (K).
The mark [28] stands for this setting: charge state: 2, modification: Succinyl.

With IISSIEQKEENK [_IISSIEQK(Butyryl)EENK_], the collision cross section under setting [1] came to 408.13 ± 0.85 Å² and the collision cross section under setting [2] was 479 Å².
As to “LLFSNTAAQKLR [_LLFSNTAAQK(Gluratylation)LR_]”, the collision cross section by setting is: under setting [3], 406.85 ± 0.6 Å²; under setting [4], 487.13 ± 1.7 Å².
On to “LTSLNVKYNNDK [_LTSLNVK(hydroxyisobutyryl)YNNDK_]”, for which the collision cross section under setting [5] was 415.97 ± 0.31 Å².
“DSSPTTNSKLSALQR [_DSSPTTNSK(Trimethyl (K))LSALQR_]”: under setting [6], the collision cross section was determined as 473.36 ± 2.4 Å².
LQIASDENYK [_LQIASDENY(Phospho (Y))K_] came in with a collision cross section under setting [7] of 374.64 ± 0.77 Å².
“DTGEKLTVAENEAETK [_DTGEK(Formyl)LTVAENEAETK_]” gave a collision cross section under setting [8] of 439.79 ± 0.78 Å².
“LGVATVAKGVCGACK [_LGVATVAK(GlyGly (K))GVCGACK_]”: the collision cross section reads like this: under setting [9], 453.34 ± 1.4 Å²; under setting [10], 497.41 ± 0.34 Å².
Regarding “ITESVAETAQTIKK [_ITESVAETAQTIK(Methyl (K))K_]”, the collision cross section came to 444.7 ± 2.5 Å² under setting [11] and 507.98 ± 2.8 Å² under setting [12].
As to DHLSDKESK [_DHLSDK(Dimethyl (K))ESK_], the collision cross section runs as follows: under setting [13], 344.63 ± 1.5 Å²; under setting [14], 408.73 ± 0.56 Å².
“GYLGPEQLPDCLK [_GY(Phospho (Y))LGPEQLPDCLK_]” registered a collision cross section under setting [7] of 400.34 ± 0.08 Å².
Regarding LEQVEKELLR [_LEQVEK(Methyl (K))ELLR_], the collision cross section runs as follows: under setting [11], 386.67 ± 0.96 Å²; under setting [12], 448.53 ± 4.9 Å².
TPNLYIYSKK [_TPNLYIYSK(Propionyl)K_] gave a collision cross section under setting [15] of 384.03 Å².
Regarding VGEFSGANKEK [_VGEFSGANK(GlyGly (K))EK_], the collision cross section runs as follows: under setting [9], 372.84 ± 0.89 Å²; under setting [10], 452.89 ± 1.5 Å².
Turning to “IPQEKCILQTDVK [_IPQEK(Butyryl)CILQTDVK_]”, the collision cross section reads like this: under setting [1], 436.84 ± 0.53 Å²; under setting [2], 487.47 ± 3.3 Å².
As to “SDSGKPYYYNSQTK [_SDSGK(Formyl)PYYYNSQTK_]”, under setting [8], the collision cross section worked out at 417.77 ± 0.18 Å².
Consider “PANEKATDDYHYEK [_PANEK(Propionyl)ATDDYHYEK_]”, for which the collision cross section under setting [16] was determined as 507.47 ± 0.5 Å².
Under setting [17], YTCSFCGK [_Y(Nitro (Y))TCSFCGK_] returned a collision cross section of 334.4 ± 0.71 Å².
For the sequence “SDDESSQKDIK [_SDDESSQK(Dimethyl (K))DIK_]”, the collision cross section reads like this: under setting [13], 372.77 ± 1.2 Å²; under setting [14], 434.93 ± 2.1 Å².
For the sequence SSFAYKDQNENR [_SSFAYK(Biotin)DQNENR_], the collision cross section by setting is: under setting [18], 421.15 ± 1.9 Å²; under setting [19], 490.01 ± 0.34 Å².
For DVNAAIAAIKTK [_DVNAAIAAIK(Butyryl)TK_], the collision cross section is, setting by setting: under setting [1], 406.92 ± 0.23 Å²; under setting [2], 469.41 Å².
For the sequence “VLTANSNPSSPSAAKR [_VLTANSNPSSPSAAK(Biotin)R_]”, the collision cross section by setting is: under setting [18], 443.24 ± 0.79 Å²; under setting [19], 547.09 ± 3.1 Å².
“AGQKLIDVNHYAK [_AGQK(Gluratylation)LIDVNHYAK_]” came in with a collision cross section under setting [3] of 437.49 ± 0.96 Å² and a collision cross section under setting [4] of 489.6 ± 0.95 Å².
Consider KYEEIDNAPEER [_K(Malonyl)YEEIDNAPEER_], for which the collision cross section by setting is: (charge state: 2, modification: Malonyl) 410.49 ± 0.6 Å²; (charge state: 3, modification: Malonyl) 491.92 ± 5.7 Å².
Regarding “VILENIASHEPR [_VILENIAS(HexNAc (ST))HEPR_]”, the collision cross section was determined as 443 ± 0.62 Å² (charge state: 2, modification: HexNAc (ST)) and 492.7 ± 0.18 Å² under setting [20].
Turning to “IFDSEEILAGYK [_IFDSEEILAGY(Nitro (Y))K_]”, the collision cross section under setting [17] worked out at 395.88 ± 0.18 Å².
In the case of ALLQAKASGK [_ALLQAK(Methyl (K))ASGK_], the collision cross section turned out to be 342.45 ± 0.79 Å² under setting [11] and 423.28 ± 5 Å² under setting [12].
For the sequence “DYSAPVNFISAGLKK [_DYSAPVNFISAGLK(Dimethyl (K))K_]”, the collision cross section by setting is: under setting [13], 457.54 ± 1.7 Å²; under setting [14], 517.49 ± 1.2 Å².
As to “LEKTIDDLEEK [_LEK(Trimethyl (K))TIDDLEEK_]”, the collision cross section amounted to 402.76 ± 0.62 Å² under setting [21] and 468.63 ± 1.5 Å² under setting [6].
On to “KYEEIDNAPEER [_K(Propionyl)YEEIDNAPEER_]”, for which the collision cross section stood at 411.41 ± 0.64 Å² under setting [15] and 491.8 Å² under setting [16].
As to “GTVPDDAVEALADSLGKK [_GTVPDDAVEALADSLGK(Dimethyl (K))K_]”, the collision cross section runs as follows: under setting [13], 485.51 ± 1.7 Å²; under setting [14], 525.76 Å².
LLEEEDSKLK [_LLEEEDSK(Biotin)LK_] registered a collision cross section under setting [18] of 405.12 ± 2.5 Å².
In the case of “GRGVGSPEPGPTAPYLGR [_GR(Citrullination (R))GVGSPEPGPTAPYLGR_]”, the collision cross section runs as follows: under setting [22], 422.7 ± 0.55 Å²; under setting [23], 509.44 ± 39 Å².
Take IQQELQTAKK [_IQQELQTAK(Biotin)K_]: the collision cross section by setting is: under setting [18], 397.29 ± 2.2 Å²; under setting [19], 468.38 ± 0.34 Å².
As to “AAINQKLIETGER [_AAINQK(hydroxyisobutyryl)LIETGER_]”, the collision cross section stood at 409.76 ± 0.32 Å² under setting [5] and 478.62 Å² (charge state: 3, modification: hydroxyisobutyryl).
As for DFDTALKHYDK [_DFDTALK(Butyryl)HYDK_], the collision cross section under setting [1] turned out to be 408.66 ± 0.23 Å² and the collision cross section under setting [2] amounted to 465.65 ± 2.9 Å².
“AGPNASIISLKSDK [_AGPNASIISLK(hydroxyisobutyryl)SDK_]” returned a collision cross section under setting [5] of 415.63 ± 0.53 Å².
With TLDEILQEKK [_TLDEILQEK(GlyGly (K))K_], the collision cross section runs as follows: under setting [9], 390.82 ± 2.5 Å²; under setting [10], 438.72 ± 1.6 Å².
Take “IINEPTAAAIAYGLDKK [_IINEPTAAAIAYGLDK(Crotonyl)K_]”: the collision cross section reads like this: under setting [24], 463.28 ± 1.3 Å²; under setting [25], 561.41 ± 1.2 Å².
Turning to “DTPTSAGPNSFNKGK [_DTPTSAGPNSFNK(Trimethyl (K))GK_]”, the collision cross section runs as follows: under setting [21], 411.65 ± 1.2 Å²; under setting [6], 457.6 ± 1.8 Å².
“FLQEFYQDDELGKK [_FLQEFYQDDELGK(Acetyl (K))K_]”: the collision cross section came out at 444.35 ± 1.6 Å² under setting [26] and 501.5 ± 0.084 Å² under setting [27].
With “AAHGRGALAEAAR [_AAHGR(Citrullination (R))GALAEAAR_]”, the collision cross section by setting is: under setting [22], 378.79 ± 0.65 Å²; under setting [23], 458.38 ± 1.8 Å².
The sequence “DAIHFYNKSLAEHR [_DAIHFYNK(Crotonyl)SLAEHR_]” displayed a collision cross section under setting [25] of 509.89 ± 2 Å².
With “VQGGALEDSQLVAGVAFKK [_VQGGALEDSQLVAGVAFK(Succinyl)K_]”, the collision cross section under setting [28] was 480.13 ± 1.2 Å².
Under setting [17], TSAYGPPTR [_TSAY(Nitro (Y))GPPTR_] registered a collision cross section of 326.25 ± 1.1 Å².
On to LLEEEDSKLK [_LLEEEDSK(Formyl)LK_], for which the collision cross section under setting [8] came to 374.12 ± 0.55 Å².
On to SEASSEFAKK [_SEASSEFAK(GlyGly (K))K_], for which the collision cross section is, setting by setting: under setting [9], 362.55 ± 0.39 Å²; under setting [10], 429.79 ± 1.1 Å².
The sequence “AGPNASIISLKSDK [_AGPNASIISLK(Crotonyl)SDK_]” had a collision cross section under setting [24] of 412.97 ± 0.55 Å².
As to “ANLEKAQAELVGTADEATR [_ANLEK(Methyl (K))AQAELVGTADEATR_]”, the collision cross section worked out at 471.05 Å² under setting [11] and 523.1 ± 0.87 Å² under setting [12].
AGQKLIDVNHYAK [_AGQK(Biotin)LIDVNHYAK_] came in with a collision cross section under setting [18] of 451.79 ± 0.62 Å² and a collision cross section under setting [19] of 517.92 ± 3.1 Å².
Regarding DLGKFQVATDALK [_DLGK(Biotin)FQVATDALK_], the collision cross section under setting [18] stood at 425.47 ± 0.89 Å².
As for “DESFLGKLGGTLAR [_DESFLGK(Crotonyl)LGGTLAR_]”, the collision cross section runs as follows: under setting [24], 415.33 ± 0.28 Å²; under setting [25], 492.01 Å².
With “TPLTHALPGLSEQEGQK [_T(HexNAc (ST))PLTHALPGLSEQEGQK_]”, the collision cross section under setting [20] stood at 513.42 ± 0.96 Å².
Regarding “IVFSGNLFQHQEDSKK [_IVFSGNLFQHQEDSK(Acetyl (K))K_]”, the collision cross section under setting [26] was 495.37 ± 4.2 Å² and the collision cross section under setting [27] is 536.07 ± 1.1 Å².
As to LDEKENLSAK [_LDEK(Propionyl)ENLSAK_], under setting [15], the collision cross section was 369.99 ± 0.94 Å².
SEASSEFAKK [_SEASSEFAK(Butyryl)K_]: the collision cross section under setting [1] was 356.58 ± 1.8 Å².
As for “SNEEGSEEKGPEVR [_SNEEGSEEK(Methyl (K))GPEVR_]”, the collision cross section is, setting by setting: under setting [11], 394.85 ± 7.3 Å²; under setting [12], 481.38 ± 2.6 Å².
Take SEASSEFAKK [_SEASSEFAK(Succinyl)K_]: the collision cross section under setting [28] worked out at 351.69 ± 0.87 Å².
